Experimental data published in patent US20120065379A1 (Chugai, published 2012).

Experiments:
[1] = molecular target: T1, Soluble human FcRn (complex of FcRn and β2-microglobulin) (human, UniProt P55899 24-290; P61769 21-119); test: SPR (Biacore 3000), pH 6.0; antibody captured, human FcRn as analyte; steady state affinity
T1 construct: Co-expressed in HEK293H cells and purified from the culture supernatant; also called hFcRn
Method: (§1) Human FcRn was prepared according to the method described in Reference Example 2. The binding to human FcRn was assessed using Biacore 3000. An antibody was bound to Protein L or rabbit anti-human IgG Kappa chain antibody immobilized onto a sensor chip, human FcRn was added as an analyte for interaction with the antibody, and the affinity (KD) was calculated from the amount of bound human FcRn. Specifically, Protein L or rabbit anti-human IgG Kappa chain antibody was immobilized onto sensor chip CMS (BIACORE) by the amine coupling method using 50 mM Sodium-phosphate buffer (pH 6.0) containing 150 mM NaCl as the running buffer. Then, IL6R H0-IgG1/L0-k0 and IL6R H0-M82/L0-k0 was each diluted with a running buffer containing 0.02% Tween20, and injected to be bound to the chip. Human FcRn was then injected and the binding of the human FcRn to antibody was assessed.
(§2) The affinity was computed using BIAevaluation Software. The obtained sensorgram was used to calculate the amount of hFcRn bound to the antibody immediately before the end of human FcRn injection. The affinity of the antibody for human FcRn was calculated by fitting with the steady state affinity method.

[2] = molecular target: T1, Soluble human FcRn (complex of FcRn and …); test: SPR (Biacore 3000), pH 6.0; antibody captured on Protein L or rabbit anti-human IgG Kappa chain antibody, human FcRn as analyte; steady state affinity fit
Method: as §1, §2

T1 sequence (P55899 24-290 limits assumed, chain 1 of 2): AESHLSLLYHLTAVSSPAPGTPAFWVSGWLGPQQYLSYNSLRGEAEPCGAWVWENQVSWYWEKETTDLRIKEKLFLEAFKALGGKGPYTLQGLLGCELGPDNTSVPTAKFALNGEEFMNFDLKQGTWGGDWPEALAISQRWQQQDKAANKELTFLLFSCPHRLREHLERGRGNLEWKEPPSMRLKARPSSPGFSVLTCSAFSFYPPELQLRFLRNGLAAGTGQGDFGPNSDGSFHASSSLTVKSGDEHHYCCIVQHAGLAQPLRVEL
T1 sequence (P61769 21-119 limits assumed, chain 2 of 2): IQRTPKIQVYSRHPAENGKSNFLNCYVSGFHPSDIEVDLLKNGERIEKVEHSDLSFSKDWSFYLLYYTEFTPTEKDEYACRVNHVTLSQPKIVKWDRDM

B1: IL6R H0-M82/L0-k0 (antibody, IgG2)
heavy: QVQLQESGPGLVRPSQTLSLTCTVSGYSITSDHAWSWVRQPPGRGLEWIGYISYSGITTYNPSLKSRVTMLRDTSKNQFSLRLSSVTAADTAVYYCARSLARTTAMDYWGQGSLVTVSSASTKGPSVFPLAPCSRSTSESTAALGCLVKDYFPEPVTVSWNSGALTSGVHTFPAVLQSSGLYSLSSVVTVPSSNFGTQTYTCNVDHKPSNTKVDKTVERKSSVECPPCPAPPVAGPSVFLFPPKPKDTLMISRTPEVTCVVVDVSQEDPEVQFNWYVDGVEVHNAKTKPREEQFNSTFRVVSVLTVVHQDWLNGKEYKCKVSNKGLPAPIEKTISKTKGQPREPQVYTLPPSQEEMTKNQVSLTCLVKGFYPSDIAVEWESNGQPENNYKTTPPMLDSDGSFFLYSKLTVDKSRWQEGNVFSCSVMHEALHNHYTQKSLSLSP
light: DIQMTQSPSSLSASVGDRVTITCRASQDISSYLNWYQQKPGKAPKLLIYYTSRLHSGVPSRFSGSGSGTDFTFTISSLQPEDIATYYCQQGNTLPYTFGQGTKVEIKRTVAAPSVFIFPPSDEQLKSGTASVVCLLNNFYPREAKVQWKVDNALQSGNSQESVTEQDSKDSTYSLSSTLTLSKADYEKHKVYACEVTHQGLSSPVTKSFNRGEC
notes: Same variable regions as m1; The M82 constant region is an IgG2 variant with C219S, C220S, H268Q, R355Q and Q419E (EU numbering) and with Gly446 and Lys447 deleted; also called M82-k0
For B1, the “fold increase of binding compared to IL6R H0-IgG1/L0-k0” value [1] was about 1.34 times and the Kd [2] was 1210 nM.
